# From the MegaScale stability set (Tsuboyama et al. 2023)
# B1: 1ZHC (parent)
# chain: HEFRDEISVLKANNPHFDKIFEKHNQLDDDIKTAEQQNASDAEVSHMKKQKLKLKDEIHSMIIEYREK
# Variants of: B1
# Experiment: folding stability dG (cDNA display proteolysis); higher = more stable
# Conditions: PBS, room temperature
row,Variant,folding stability dG [kcal/mol]
1,HEFRDEISVLKANNPHFDKMFEKHNQLDDDIKTAEQQNASDAEVSHMKKQKLKLKDEIHSMIIEYREK [I20M],-0.166
2,HEFRDEISVLKANNPHFDKAFEKHNQLDDDIKTAEQQNASDAEVSHMKKQKLKLKDEIHSMIIEYREK [I20A],-0.159
3,HEFRDEISVLKANNPHFDKTFEKHNQLDDDIKTAEQQNASDAEVSHMKKQKLKLKDEIHSMIIEYREK [I20T],-0.398
4,HEFRDEISVLKANNPHFDKCFEKHNQLDDDIKTAEQQNASDAEVSHMKKQKLKLKDEIHSMIIEYREK [I20C],-0.061
5,HEFRDEISVLKANNPHFDKLFEKHNQLDDDIKTAEQQNASDAEVSHMKKQKLKLKDEIHSMIIEYREK [I20L],0.743
6,HEFRDEISVLKANNPHFDEIFEKHNQLDDDIKTAEQQNASDAEVSHMKKQKLKLKDEIHSMIIEYREK [K19E],1.1
7,HEFRDEISVLKANNPHFDFIFEKHNQLDDDIKTAEQQNASDAEVSHMKKQKLKLKDEIHSMIIEYREK [K19F],1.37
8,HEFRDEISVLKANNPHFDMIFEKHNQLDDDIKTAEQQNASDAEVSHMKKQKLKLKDEIHSMIIEYREK [K19M],0.78
9,HEFRDEISVLKANNPHFDNIFEKHNQLDDDIKTAEQQNASDAEVSHMKKQKLKLKDEIHSMIIEYREK [K19N],0.558
10,HEFRDEISVLKANNPHFDWIFEKHNQLDDDIKTAEQQNASDAEVSHMKKQKLKLKDEIHSMIIEYREK [K19W],1.3
11,HEFRDEISVLKANNPHFDTIFEKHNQLDDDIKTAEQQNASDAEVSHMKKQKLKLKDEIHSMIIEYREK [K19T],0.755
12,HEFRDEISVLKANNPHFDVIFEKHNQLDDDIKTAEQQNASDAEVSHMKKQKLKLKDEIHSMIIEYREK [K19V],0.316
13,HEFRDEISVLKANNPHFDIIFEKHNQLDDDIKTAEQQNASDAEVSHMKKQKLKLKDEIHSMIIEYREK [K19I],0.622
14,HEFRDEISVLKANNPHFDQIFEKHNQLDDDIKTAEQQNASDAEVSHMKKQKLKLKDEIHSMIIEYREK [K19Q],0.953
15,HEFRDEISVLKANNPHFDCIFEKHNQLDDDIKTAEQQNASDAEVSHMKKQKLKLKDEIHSMIIEYREK [K19C],1.32
16,HEFRDEISVLKANNPHFDGIFEKHNQLDDDIKTAEQQNASDAEVSHMKKQKLKLKDEIHSMIIEYREK [K19G],0.004
17,HEFRDEISVLKANNPHFDSIFEKHNQLDDDIKTAEQQNASDAEVSHMKKQKLKLKDEIHSMIIEYREK [K19S],0.513
18,HEFRDEISVLKANNPHFDRIFEKHNQLDDDIKTAEQQNASDAEVSHMKKQKLKLKDEIHSMIIEYREK [K19R],1.15
19,HEFRDEISVLKANNPHFDHIFEKHNQLDDDIKTAEQQNASDAEVSHMKKQKLKLKDEIHSMIIEYREK [K19H],0.901
20,HEFRDEISVLKANNPHFDDIFEKHNQLDDDIKTAEQQNASDAEVSHMKKQKLKLKDEIHSMIIEYREK [K19D],0.823

row,Variant,folding stability dG [kcal/mol]
1,HEFRDEISVLKANNPHFDYIFEKHNQLDDDIKTAEQQNASDAEVSHMKKQKLKLKDEIHSMIIEYREK [K19Y],1.52
2,HEFRDEISVLKANNPHFDAIFEKHNQLDDDIKTAEQQNASDAEVSHMKKQKLKLKDEIHSMIIEYREK [K19A],1.13
3,HEFRDEISVLKANNPHFDLIFEKHNQLDDDIKTAEQQNASDAEVSHMKKQKLKLKDEIHSMIIEYREK [K19L],0.515
4,HEFRDEISVLKANNPHFHKIFEKHNQLDDDIKTAEQQNASDAEVSHMKKQKLKLKDEIHSMIIEYREK [D18H],1.62
5,HEFRDEISVLKANNPHFLKIFEKHNQLDDDIKTAEQQNASDAEVSHMKKQKLKLKDEIHSMIIEYREK [D18L],2.42
6,HEFRDEISVLKANNPHFGKIFEKHNQLDDDIKTAEQQNASDAEVSHMKKQKLKLKDEIHSMIIEYREK [D18G],1.16
7,HEFRDEISVLKANNPHFQKIFEKHNQLDDDIKTAEQQNASDAEVSHMKKQKLKLKDEIHSMIIEYREK [D18Q],1.95
8,HEFRDEISVLKANNPHFVKIFEKHNQLDDDIKTAEQQNASDAEVSHMKKQKLKLKDEIHSMIIEYREK [D18V],1.68
9,HEFRDEISVLKANNPHFRKIFEKHNQLDDDIKTAEQQNASDAEVSHMKKQKLKLKDEIHSMIIEYREK [D18R],2.46
10,HEFRDEISVLKANNPHFSKIFEKHNQLDDDIKTAEQQNASDAEVSHMKKQKLKLKDEIHSMIIEYREK [D18S],1.56
11,HEFRDEISVLKANNPHFTKIFEKHNQLDDDIKTAEQQNASDAEVSHMKKQKLKLKDEIHSMIIEYREK [D18T],1.35
12,HEFRDEISVLKANNPHFYKIFEKHNQLDDDIKTAEQQNASDAEVSHMKKQKLKLKDEIHSMIIEYREK [D18Y],1.95
13,HEFRDEISVLKANNPHFFKIFEKHNQLDDDIKTAEQQNASDAEVSHMKKQKLKLKDEIHSMIIEYREK [D18F],2.03
14,HEFRDEISVLKANNPHFNKIFEKHNQLDDDIKTAEQQNASDAEVSHMKKQKLKLKDEIHSMIIEYREK [D18N],1.74
15,HEFRDEISVLKANNPHFEKIFEKHNQLDDDIKTAEQQNASDAEVSHMKKQKLKLKDEIHSMIIEYREK [D18E],1.35
16,HEFRDEISVLKANNPHFIKIFEKHNQLDDDIKTAEQQNASDAEVSHMKKQKLKLKDEIHSMIIEYREK [D18I],1.43
17,HEFRDEISVLKANNPHFKKIFEKHNQLDDDIKTAEQQNASDAEVSHMKKQKLKLKDEIHSMIIEYREK [D18K],2.23
18,HEFRDEISVLKANNPHFWKIFEKHNQLDDDIKTAEQQNASDAEVSHMKKQKLKLKDEIHSMIIEYREK [D18W],1.77
19,HEFRDEISVLKANNPHFCKIFEKHNQLDDDIKTAEQQNASDAEVSHMKKQKLKLKDEIHSMIIEYREK [D18C],1.97
20,HEFRDEISVLKANNPHFMKIFEKHNQLDDDIKTAEQQNASDAEVSHMKKQKLKLKDEIHSMIIEYREK [D18M],2.03
